Assay [1] has as its target T1, GST-ITM2A-L (GST fusion of the ITM2A extracellular region Tyr75-Glu263, C-terminally His-tagged) (human).
T1 construct: Expressed in E. coli, solubilized and purified in 8 M urea buffer, coated on the ELISA plate
Kind of assay: ELISA, coated GST-ITM2A-L. On the procedure:
(§1) Each anti-ITM2A monoclonal antibody prepared in Example 2 was evaluated for its binding to GST-ITM2A-L and GST-ITM2A-S by ELISA. First, 100 μL each of GST-ITM2A-L and GST-ITM2A-S solutions having a concentration of 3 μg/mL was added to each well of a 96-well plate for ELISA (Nunc-Immuno Plate, Thermo Fisher Scientific K.K.) to coat the well with GST-ITM2A-L or GST-ITM2A-S. The coated well was blocked with a buffer containing 1% bovine serum albumin. Then, 100 μL each of solutions of the antibodies BE5-1, BE6-1, BE7-1-1, and BE13-1 diluted with the same buffer as above was added to each well. The plate was incubated at room temperature for 1 hour. The positive control used was an anti-His antibody (mouse IgG1, Santa Cruz Biotechnology, Inc.). The negative control used was mouse IgG1 (BD Pharmingen). Each antibody was diluted into 8 dilutions at a common ratio of 3.16 from a concentration of 1 μg/mL. After reaction with a secondary antibody (alkaline phosphatase-goat anti-mouse IgG (Gamma), Invitrogen Corp.), a substrate (phosphatase substrate, Sigma-Aldrich Corp.) was added to each well. Color developed by the reaction solution in each well was determined by the measurement of absorbance at 405 nm to 655 nm.
Background: An ELISA detects its analyte on a solid surface through an enzyme-linked reagent.

The target of assay [2] is T2, GST-ITM2A-S (GST fusion of ITM2A Tyr75-Lys182, C-terminally His-tagged) (human).
T2 construct: Expressed in E. coli, solubilized and purified in 8 M urea buffer, coated on the ELISA plate
T2 sequence (chain, as listed by the source limits assumed): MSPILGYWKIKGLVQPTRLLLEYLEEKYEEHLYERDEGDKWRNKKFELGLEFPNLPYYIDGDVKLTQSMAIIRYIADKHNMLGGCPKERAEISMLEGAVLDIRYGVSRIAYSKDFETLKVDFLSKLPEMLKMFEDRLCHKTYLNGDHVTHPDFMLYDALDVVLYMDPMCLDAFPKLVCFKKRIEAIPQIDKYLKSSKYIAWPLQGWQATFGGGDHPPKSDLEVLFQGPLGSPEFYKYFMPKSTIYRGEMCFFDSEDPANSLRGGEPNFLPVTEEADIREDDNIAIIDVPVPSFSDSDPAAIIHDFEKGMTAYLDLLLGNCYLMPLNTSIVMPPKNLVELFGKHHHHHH
In words: ELISA, coated GST-ITM2A-S. How it is done:
as §1

Assay [3] concerns the target T3, C-terminally HA-tagged ITM2A expressed on CHO cells (ITM2A_CHO) (human, UniProt O43736 1-263).
T3 construct: Type II membrane protein on DG44 CHO cells; also called ITM2A-HA; ITM2A-expressing CHO cells
Kind of assay: flow cytometry on ITM2A_CHO cells. How it is done: (§2) Each anti-ITM2A monoclonal antibody prepared in Example 2 was assayed for its binding to ITM2A-furin by flow cytometry (FACS). The cells used were ITM2A-furin_CHO prepared in the paragraph (4-1), ITM2A_CHO prepared in the paragraph (2-4), and host cells CHO. These cells were separately suspended in PBS supplemented with 0.2% bovine serum albumin and 0.1% NaN3 (FACS buffer). To each cell suspension, the antibody BE5-1, BE6-1, BE7-1-1, or BE13-1, mouse IgG1, or an anti-HA antibody (clone HA-7, mouse IgG1, Sigma-Aldrich Corp.) was added, and the resulting cell suspension was incubated for 1 hour on ice. Each antibody was diluted into 6 dilutions at a common ratio of 5 from a concentration of 10 μg/mL. After washing of the cells with a FACS buffer, an FITC-labeled anti-mouse IgG antibody (Goat F(ab′)2 Fragment Anti-mouse IgG (Fcγ)-FITC, Beckman Coulter, Inc.) was added thereto as a secondary antibody. The resulting cell suspension was incubated for 1 hour on ice. The cells were washed with a FACS buffer, then suspended in a FACS buffer supplemented with 10 μg/mL propidium iodide (PI, Sigma-Aldrich Corp.), and subjected to assay using a flow cytometer. The assay data was analyzed using CELLQuest software (Becton, Dickinson and Company) to evaluate a PI-negative live cell population.
On the technique in general: A flow cytometer gives signals particle by particle.

Assay [4] addresses T4, C-terminally HA-tagged mouse ITM2A expressed on CHO cells (mITM2A_CHO) (mouse, UniProt Q61500 1-263).
T4 construct: also called mITM2A-HA; mouse ITM2A-expressing CHO cells
In words: flow cytometry on mITM2A_CHO cells.

For assay [5], the target named is T5, ITM2A-furin (Met1 to Leu227 of ITM2A with an HA tag added downstream) expressed on CHO cells (ITM2A-furin_CHO) (human, UniProt O43736 1-227).
T5 construct: C-terminally truncated ITM2A on DG44 CHO cells; also called ITM2A-furin-HA; ITM2A-furin-expressing CHO cells
T5 sequence (O43736 other isoform, or with tags, fused parts or gaps limits assumed): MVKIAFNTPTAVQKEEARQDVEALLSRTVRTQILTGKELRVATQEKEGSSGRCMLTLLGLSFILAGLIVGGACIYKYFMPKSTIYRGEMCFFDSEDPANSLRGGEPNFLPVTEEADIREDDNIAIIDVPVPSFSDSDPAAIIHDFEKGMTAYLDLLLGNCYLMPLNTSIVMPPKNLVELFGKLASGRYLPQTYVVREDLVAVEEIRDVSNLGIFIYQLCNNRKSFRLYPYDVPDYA
In words: flow cytometry on ITM2A-furin_CHO cells. On the procedure:
as §2

Assay [6] addresses T6, human ITM2A protein (endogenous, on human cancer cell lines) (human, UniProt O43736 1-263).
T6 construct: also called NP-004858.1
Kind of assay: flow cytometry on human cancer cell lines, BE6-1 at 10 µg/mL, mouse IgG1 as negative control. How it is done: as §2
The expression of ITM2A was assayed in human cancer cell lines by FACS. […]

For assay [7], the target named is T3, C-terminally HA-tagged ITM2A expressed …. Kind of assay: flow cytometry screening of hybridoma supernatants on ITM2A_CHO against parent CHO cells.

T4 sequence (Q61500 other isoform, or with tags, fused parts or gaps): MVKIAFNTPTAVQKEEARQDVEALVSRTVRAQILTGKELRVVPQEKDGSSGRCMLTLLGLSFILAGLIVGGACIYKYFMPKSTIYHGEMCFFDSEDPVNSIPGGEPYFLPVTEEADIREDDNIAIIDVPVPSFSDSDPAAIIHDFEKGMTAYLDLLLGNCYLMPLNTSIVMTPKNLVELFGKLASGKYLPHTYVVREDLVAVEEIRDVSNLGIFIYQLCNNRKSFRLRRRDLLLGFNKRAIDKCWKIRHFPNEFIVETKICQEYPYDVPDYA
T1 sequence (chain, as listed by the source limits assumed): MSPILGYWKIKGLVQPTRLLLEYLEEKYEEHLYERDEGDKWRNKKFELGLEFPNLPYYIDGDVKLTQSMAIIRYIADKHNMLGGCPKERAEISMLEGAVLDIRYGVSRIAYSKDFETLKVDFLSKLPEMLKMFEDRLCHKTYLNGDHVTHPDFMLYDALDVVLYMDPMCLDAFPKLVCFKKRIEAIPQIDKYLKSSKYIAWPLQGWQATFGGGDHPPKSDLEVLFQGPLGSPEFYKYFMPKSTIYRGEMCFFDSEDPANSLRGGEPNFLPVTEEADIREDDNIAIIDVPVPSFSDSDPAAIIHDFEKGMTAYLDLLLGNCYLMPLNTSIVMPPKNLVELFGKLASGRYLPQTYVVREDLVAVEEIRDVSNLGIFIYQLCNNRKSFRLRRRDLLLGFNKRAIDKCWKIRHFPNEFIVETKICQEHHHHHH
T3 sequence (O43736 other isoform, or with tags, fused parts or gaps): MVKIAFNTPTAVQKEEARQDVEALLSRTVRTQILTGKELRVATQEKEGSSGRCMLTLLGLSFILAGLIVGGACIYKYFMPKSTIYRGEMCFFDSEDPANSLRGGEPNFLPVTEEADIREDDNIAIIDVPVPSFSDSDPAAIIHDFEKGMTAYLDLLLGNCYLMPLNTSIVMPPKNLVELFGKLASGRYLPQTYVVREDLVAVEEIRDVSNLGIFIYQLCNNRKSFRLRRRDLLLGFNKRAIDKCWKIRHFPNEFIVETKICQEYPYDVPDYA
T6 sequence (O43736 whole entry): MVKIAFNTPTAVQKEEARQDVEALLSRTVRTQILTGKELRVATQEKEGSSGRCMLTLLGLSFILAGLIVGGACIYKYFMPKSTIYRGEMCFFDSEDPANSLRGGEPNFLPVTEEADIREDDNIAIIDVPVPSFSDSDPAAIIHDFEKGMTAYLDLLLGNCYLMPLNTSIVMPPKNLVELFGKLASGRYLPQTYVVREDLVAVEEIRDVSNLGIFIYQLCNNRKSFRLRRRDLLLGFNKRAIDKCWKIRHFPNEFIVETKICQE

B1: anti-ITM2A monoclonal antibody BE6-1 (antibody, mouse IgG1, V domains shown)
VH: EVQLQQSGPELVKPGASVKISCKTSGYTFTEYTMHWVKQSHGKSLEWIGGINPNNGDTSYNQKFKGKATLTVDKSSITAYMELRSLTSEDSAVYYCARGPFAYWGQGTLVTVST
VL: DVVMTQTPLSLPVSLGDQASISCRSSQSLVHSNGNTYFHWYLQKPGQSPKFLIYKVSNRFFGVPDRFSGSGSGTDFTLKISRVEAEDLGVYFCSQTTHFPFTFGSGTKLEIK
For B1, the binding result was “binds” in assay [1]; “binds” in assay [2]; “binds” in assay [3]; “no binding” in assay [4]; “binds” in assay [5]; “binds” in assay [6].

B2: anti-ITM2A monoclonal antibody BE13-1 (antibody, mouse IgG1, V domains shown)
VH: EVQLQQSGPELVKPGASVRMSCKASGYTFTDYYMKWVKQSHGKSLEWIGDINPNNGGLSYNQKFKGKATLTVDKSSSTAYMQLASLTSEDSAVYYCAIWSGAYWGQGTLVTVSA
VL: not shown
With B2, the binding result in assay [1], in assay [3] and in assay [4] was “binds” in each case.

B3: anti-ITM2A monoclonal antibody BE5-1 (antibody, mouse IgG1, V domains shown)
VH: QVQLVETGGGLVRPGNSLKLSCVTSGFTFSDYRMHWLRQSPGKRLEWIAVITGKSDNYGASYAESVKGRFTISRDDSKSSVYLQMNRLREEDTATYYCSRRDYWGQGTSVTVSS
VL: DIVMTQAAPSVPVTPGESVSISCRSSKSLLHSNGNTYLYWFLQRPGQSPQLLIYRMSNLAPGVPDRFSGSGSGTAFTLRISRVEAEDVGVYYCMQHLEYPFTFGAGTKLELK
In the case of B3, the binding result in assay [1], in assay [2], in assay [4], in assay [5] and in assay [7] was “binds” throughout.

Values taken from US20140193420A1 (UNIVERSITY OF TOKYO, published 2014).
